# Results published in US6582902B1, “Method for deriving epitopes” (priority 1992, dated 2003).
# Tests used:
# anti-g10 serum [1] = assay: Immunoprecipitation of [32P]-labeled in vitro transcribed RNA with anti-g10 serum; assay type: binding, rabbit; settings: FIG. 4; compared with protein A Sepharose beads alone and pre-immune serum
# Description: Various antisera were used to precipitate either [32P] labeled in vitro transcribed D10 RNA or control transcripts. Bound RNA was analyzed on a denaturing 6% polyacrylamide gel by autoradiography. Lanes 1-4 are precipitations of D10 RNA with the following antisera: 1, anti-g10 serum; 2, preimmune serum; 3, no antibody; 4, anti-g10 serum. Other transcripts were precipitated with the anti-g10 serum as follows: 5, a control RNA identical to the D10 epitope but with loop sequence 5′-CACCAUAUAA-3′(SEQ ID NO:5); 6, an unrelated RNA; 7, an RNA containing the loop sequence 5′-CUGACCCCGU-3′(SEQ ID NO:6); 8-11, supernatants from the immunoprecipitations shown in lanes 4-7, diluted to approximate radioactive equivalents.
# In vitro transcribed [^32P] radiolabeled RNA was immunoprecipitated with anti-g10 serum or with an anti-U1 RNA serum (EW). Bound RNA was analyzed using a denaturing 6% acrylamide gel and autoradiography: Panel A: The D10 DNA construct (FIG. 2) was cloned into the BamHI site of PGEM-3zf (+) to produce tagged vector RNA, and transcripts with different 3′termini were generated with SP6 RNA polymerase. […] For unexplained reasons, a small amount of endogenous U1 RNA was detected in the presence of total HeLa cell extract (lanes 12-14). […]
# anti-g10 serum [2] = assay: Selection of RNA from degenerate pool by immunoprecipitation with anti-g10 serum; assay type: binding, rabbit; settings: three cycles, high stringency washing (0.5 M urea)
# Excerpt: Whereas the g10 peptide is a useful epitope tag for analyzing complexes containing protein, an RNA epitope tag would be equally useful for studying complexes containing RNA. The anti-g10 serum was presented with a degenerate pool of RNA containing 1,048,576 unique species, assuming incorporation of four different nucleotides at 10 randomized loop positions (FIG. 2). These RNAs were transcribed from approximately 1×10^11 molecules of degenerate oligodeoxynucleotide template (D. Tsai et al., Nucl. Acids Res. 19, 4931-4936 (1991)). Assuming that most templates are transcribed at least once, all possible RNA species should be redundantly represented. RNA was prepared by in vitro transcription of PCR-generated templates in accordance with known techniques (D. Tsai et al., Nucl. Acids Res. 19, 4931-4936 (1991)). The transcripts were immunoprecipitated with the anti-g10 serum as follows: Protein A Sepharose beads (Sigma, 4 mg per […]) were washed in NT2 buffer (50 mM Tris [pH 7.4], 150 mM NaCl, 0.05% Nonidet P-40) (C. Query et al., Cell 57, 89-101 (1989)), mixed with […] of anti-g10 serum, incubated on ice for 10 min, and washed in NT2. […]
molecule,measurement,setting,value
"D10 RNA: single RNA species selected from the degenerate pool by anti-g10 serum (SEQ ID NO:3); U1 stem II with loop UGGUGGAGCA (nucleic acid, chemistry not given here, U1 stem II with loop UGGUGGAGCA) GGGCCACCAACGACAUUGGGCGAGGCUUAUCCUGGUGGAGCAGGAUGUGCUGACCCCGUUGAUAUAAAUAGUGCCCAUGGAUC",binding / recognition of RNA by anti-g10 serum,anti-g10 serum [1],bound only to the anti-g10 serum
same,isolates obtained after antibody selection,anti-g10 serum [2],45 out of 45
